Laboratory results from patent CN111690058A (SANYOU BIO INC; SHANGHAI ZJ BIO TECH CO LTD, dated 2020).

Tests used:
[1] = target: T1, S蛋白RBD-His (319Arg-532Asn) (2019-nCoV (SARS-CoV-2), UniProt P0DTC2 319-532)
[2] = target: T1, S蛋白RBD-His (319Arg-532Asn); assay: BLI (Fortebio), RBD-His on Anti-Penta-HIS sensor, antibody in solution

B1: 候选抗体P16-A3 (全长人IgG1, κ轻链) (antibody, V domains shown)
VH: QVQLVESGGGVVQPGRSLRLSCAASGFTFSSYGMHWVRQAPGKGLEWVAVISYDGSNKYYADSVKGRFTISRDNSKNTLYLQMNSLRAEDTAVYYCARAYSSSWLLQSFYYYGMDVWGQGTTVTVSS
VL: NIQLTQSPVSLSASVGDRVTLTCRASQGIGYSLVWYQKKPGTAPKLLIFDASTLQSGVPSRFSGSGSGTDFTLTISSLQPEDSATYYCQQVIHYPLTFGGGTKVEIK
IC50 [1]: 7.7 nM | Kd [2]: 0.415 nM | koff [2]: 7.17e-05 s⁻¹ | kon [2]: 173000 M⁻¹ s⁻¹
